Reference: article PMC4649674, “Structural insights into HetR−PatS interaction involved in cyanobacterial pattern formation” (Scientific Reports, 2015)

Legend:
HetR mutant E253A = target: T1, HetR mutant E253A (Nostoc sp., UniProt P27709, E253A); assay: ITC binding of PatS6 to HetR mutant E253A; parameters: species or system Anabaena sp. PCC 7120; settings: 25 °C, 1 M NaCl, 5% (v/v) glycerol, 10 mM Tris-Cl, pH 7.8, protein 50 μM, PatS6 750 μM
T1 construct: 15 times (150 or 750 μM) to that of the full-length protein or 40 times (2 mM) to that of HetRHood; six-histidine tag (N); made in house; host or cells: Escherichia coli Rosetta (DE3)
Protocol: (§1) The selenium-methionine-labeled HetR (SeMet HetR) was expressed in E. coli strain B834 (DE3) (Novagen, Madison). Transformed cells were first cultured in 2 × YT medium at 37 °C overnight, then harvested and washed twice with the M9 medium. Then the cells were cultured in SeMet medium (M9 medium with 50 mg/l SeMet and other essential amino acids at 50 mg/l) to an OD600 nm of approximately 1.0. The following steps in protein expression and purification were the same as those for the native protein. Site-directed mutagenesis was performed using the QuickChange site-directed mutagenesis kit (Stratagene, La Jolla) with the plasmid encoding the wild-type HetR as the template. The mutant protein was expressed, purified and stored in the same manner as the wild-type protein.
(§2) The related Kd values are
(§3) calculated and shown above the figures. ND stands for “not detectable”.

[1] = target: T2, HetR double mutant D270A/D278A (Nostoc sp., UniProt P27709, D270A/D278A); assay: ITC binding of PatS6 to HetR double mutant D270A/D278A; parameters: species or system Anabaena sp. PCC 7120; settings: 25 °C, 1 M NaCl, 5% (v/v) glycerol, 10 mM Tris-Cl, pH 7.8, protein 50 μM, PatS6 750 μM
T2 construct: 15 times (150 or 750 μM) to that of the full-length protein or 40 times (2 mM) to that of HetRHood; six-histidine tag (N); made in house; host or cells: Escherichia coli Rosetta (DE3)
Protocol: as §1, §2, §3

[2] = target: PatS5 (Nostoc sp. PCC 7120); settings: cited from earlier work
[3] = target: PatS6 (Nostoc sp. PCC 7120); settings: cited from earlier work
[4] = system: E253D mutant strain (hetR); parameters: method as in PMID 21942265; settings: in vivo; cited from earlier work
HetR = settings: cited from earlier work
Description: Heterocyst pattern was first speculated to be controlled by a pentapeptide RGSGR (designated as PatS5), a motif which was identified first as the C-terminal five residues of PatS[16], and later within a putative ketoacyl reductase HetN[17].

HetR R223W = target: T3, HetR R223W (Anabaena sp. PCC 7120, UniProt P27709 1-299, R223W); assay: ITC; iTC200, 25 °C; protein in the sample cell (10 or 50 μM), PatS6 in the syringe (150 or 750 μM; 2 mM for HetR_(Hood)); 1 M NaCl, 5% (v/v) glycerol, 10 mM Tris-Cl, pH 7.8; settings: both partners purified
T3 construct: HetR of Anabaena sp; PCC 7120, point mutant made from the plasmid of wild-type HetR; source: E. coli, purified in the same manner as the wild-type protein
T3 sequence (looked up): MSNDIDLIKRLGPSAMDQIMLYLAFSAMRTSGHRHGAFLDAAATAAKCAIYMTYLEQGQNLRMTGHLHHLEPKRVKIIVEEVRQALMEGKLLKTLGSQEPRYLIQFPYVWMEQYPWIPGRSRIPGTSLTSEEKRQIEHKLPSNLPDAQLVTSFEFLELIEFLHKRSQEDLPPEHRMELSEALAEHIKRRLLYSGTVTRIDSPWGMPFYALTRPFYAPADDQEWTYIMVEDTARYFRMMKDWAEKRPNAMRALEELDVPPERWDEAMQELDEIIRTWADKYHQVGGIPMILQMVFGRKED

HetR D278A = target: T4, HetR D278A (Anabaena sp. PCC 7120, UniProt P27709 1-299, D278A); assay: as above; settings: both partners purified
T4 construct: HetR of Anabaena sp; PCC 7120, point mutant made from the plasmid of wild-type HetR; source: E. coli, purified in the same manner as the wild-type protein
T4 sequence (looked up): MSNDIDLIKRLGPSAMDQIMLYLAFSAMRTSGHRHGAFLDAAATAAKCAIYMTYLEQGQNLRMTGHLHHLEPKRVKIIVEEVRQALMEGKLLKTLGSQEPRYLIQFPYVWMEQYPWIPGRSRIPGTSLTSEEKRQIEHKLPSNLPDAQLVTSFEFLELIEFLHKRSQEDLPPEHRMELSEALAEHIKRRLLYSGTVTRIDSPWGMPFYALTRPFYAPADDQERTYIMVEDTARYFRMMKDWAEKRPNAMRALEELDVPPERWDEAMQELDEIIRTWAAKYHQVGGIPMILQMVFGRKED

[5] = target: T5, HetR (wild type, full-length) from Anabaena sp. PCC 7120 (Anabaena sp. PCC 7120, UniProt P27709 1-299); assay: as above; settings: both partners purified
T5 construct: HetR, transcription factor of Anabaena sp; PCC 7120; DBD 1-98, flap domain 99-216, hood domain 217-299; Intertwined homodimer in the crystal with 21-bp hetP promoter DNA; A SeMet-labelled form (E. coli B834) was used for phasing only; also called wild-type HetR; full-length HetR; source: E. coli Rosetta (DE3), purified (Ni-NTA, Superdex 75)
T5 sequence (looked up): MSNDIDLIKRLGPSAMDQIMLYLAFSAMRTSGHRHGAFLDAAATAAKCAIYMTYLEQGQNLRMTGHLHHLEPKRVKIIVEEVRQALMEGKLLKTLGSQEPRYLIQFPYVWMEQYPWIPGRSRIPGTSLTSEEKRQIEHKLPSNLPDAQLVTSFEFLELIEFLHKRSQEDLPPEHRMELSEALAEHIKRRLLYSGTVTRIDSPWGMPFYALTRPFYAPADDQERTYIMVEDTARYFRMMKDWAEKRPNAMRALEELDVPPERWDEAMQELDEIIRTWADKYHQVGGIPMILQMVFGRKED

[6] = target: T6, HetR hood domain (Asp219-Asp299), HetR_(Hood) (Anabaena sp. PCC 7120, UniProt P27709 219-299); assay: as above; settings: both partners purified
T6 construct: HetR of Anabaena sp; PCC 7120, individual hood domain, residues Asp219-Asp299; Entwined dimer in the crystal; four molecules (two dimers) in the asymmetric unit; source: E. coli Rosetta (DE3), purified (Ni-NTA, Superdex 75)
T6 sequence (looked up): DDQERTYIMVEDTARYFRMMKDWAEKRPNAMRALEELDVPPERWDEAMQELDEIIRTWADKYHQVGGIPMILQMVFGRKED

HetR D256A = target: T7, HetR D256A (Anabaena sp. PCC 7120, UniProt P27709 1-299, D256A); assay: as above; settings: both partners purified
T7 construct: HetR of Anabaena sp; PCC 7120, point mutant made from the plasmid of wild-type HetR; source: E. coli, purified in the same manner as the wild-type protein
T7 sequence (looked up): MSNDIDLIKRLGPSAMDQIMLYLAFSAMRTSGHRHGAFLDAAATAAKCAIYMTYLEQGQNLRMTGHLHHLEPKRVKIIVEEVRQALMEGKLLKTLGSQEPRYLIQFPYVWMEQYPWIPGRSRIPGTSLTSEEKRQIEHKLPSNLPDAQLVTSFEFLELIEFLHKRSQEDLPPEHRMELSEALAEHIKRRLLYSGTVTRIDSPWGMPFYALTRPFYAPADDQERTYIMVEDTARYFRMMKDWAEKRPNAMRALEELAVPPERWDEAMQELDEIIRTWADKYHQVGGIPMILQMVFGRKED

HetR E254A = target: T8, HetR E254A (Anabaena sp. PCC 7120, UniProt P27709 1-299, E254A); assay: as above; settings: both partners purified
T8 construct: HetR of Anabaena sp; PCC 7120, point mutant made from the plasmid of wild-type HetR; source: E. coli, purified in the same manner as the wild-type protein
T8 sequence (looked up): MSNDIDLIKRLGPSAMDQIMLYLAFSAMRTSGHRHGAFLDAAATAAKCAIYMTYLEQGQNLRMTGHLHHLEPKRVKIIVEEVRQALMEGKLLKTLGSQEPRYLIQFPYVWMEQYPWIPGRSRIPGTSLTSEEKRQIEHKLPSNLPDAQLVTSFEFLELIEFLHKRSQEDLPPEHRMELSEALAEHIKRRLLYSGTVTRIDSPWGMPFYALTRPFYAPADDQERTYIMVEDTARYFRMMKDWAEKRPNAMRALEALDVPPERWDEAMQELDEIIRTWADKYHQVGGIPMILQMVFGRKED

HetR D270A = target: T9, HetR D270A (Anabaena sp. PCC 7120, UniProt P27709 1-299, D270A); assay: as above; settings: both partners purified
T9 construct: HetR of Anabaena sp; PCC 7120, point mutant made from the plasmid of wild-type HetR; source: E. coli, purified in the same manner as the wild-type protein
T9 sequence (looked up): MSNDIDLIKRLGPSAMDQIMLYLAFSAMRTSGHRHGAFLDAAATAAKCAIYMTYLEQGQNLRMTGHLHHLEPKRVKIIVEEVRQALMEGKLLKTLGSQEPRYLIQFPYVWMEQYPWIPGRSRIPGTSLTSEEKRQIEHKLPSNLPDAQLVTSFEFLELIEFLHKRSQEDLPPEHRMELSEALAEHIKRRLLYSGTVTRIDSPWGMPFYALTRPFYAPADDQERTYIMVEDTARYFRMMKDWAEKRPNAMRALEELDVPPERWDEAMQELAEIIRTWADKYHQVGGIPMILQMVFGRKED

T1 sequence (P27709 whole entry E253A): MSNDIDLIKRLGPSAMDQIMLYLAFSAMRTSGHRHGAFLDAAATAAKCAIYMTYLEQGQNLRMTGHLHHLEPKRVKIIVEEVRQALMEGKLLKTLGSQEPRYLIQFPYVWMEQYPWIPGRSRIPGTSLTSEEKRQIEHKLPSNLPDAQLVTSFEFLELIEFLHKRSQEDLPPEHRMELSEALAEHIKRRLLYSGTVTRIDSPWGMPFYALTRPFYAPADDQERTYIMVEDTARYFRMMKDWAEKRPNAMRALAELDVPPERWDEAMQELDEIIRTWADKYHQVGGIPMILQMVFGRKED
T2 sequence (P27709 whole entry D270A/D278A): as the sequence (P27709 whole entry E253A) above, with A253E, D270A, D278A counted along it

What does the source list for `N=C(N)NCCC[C@H](NC(=O)CNC(=O)[C@H](CO)NC(=O)CNC(=O)[C@H](CCCNC(=N)N)NC(=O)[C@@H](N)CCC(=O)O)C(=O)O` [PatS6]?
PatS6-binding affinity towards E253A (HetR mutant E253A): totally abolished the PatS6-binding affinity; binding affinity towards D270A/D278A [1]: no detectable binding affinity

For HetR (from UniProt P27709), which Kd [2] is on record?
Its Kd is 227 nM.

And the Kd [3]?
The Kd was 7 nM.

What does the source list for “RGSGR [PatS5, pentapeptide RGSGR, C-terminal five residues of PatS]”?
sensitivity of E253D mutant strain to PatS5 [4]: drastically reduced sensitivity to PatS5; effect of PatS5 binding on DNA-binding capacity of HetR (HetR): may abolish the DNA-binding capacity of HetR; molecules bound per HetR homodimer (HetR; in vitro binding assays): two

B1: PatS6 (PatS-derived hexapeptide ERGSGR) (peptide)
peptide: ERGSGR
notes: PatS-derived hexapeptide; RGSGR is the C-terminal five residues of PatS of Anabaena sp; PCC 7120; source: synthetic peptide (GL Biochem, Shanghai)
For B1, which Kd (HetR R223W) is on record?
Its Kd is 2350 nM.

And the Kd (HetR D278A)?
The Kd was 1630 nM.

And the Kd [5]?
The Kd was 12 nM.

And the Kd [6]?
Its Kd is 24000 nM.

And the Kd (HetR D256A)?
Its Kd is 427 nM.

What about the Kd (HetR E254A) of the same molecule?
The Kd was 91 nM.

What about the Kd (HetR D270A) of the same molecule?
Its Kd is 2250 nM.
